# Test results as given in patent publication US20130344055A1, “ANTIMICROBIAL AGENTS” (priority 2010, published 2013).
# Tested on: Streptococcus bacteria
# Experiment: In vitro antibacterial activity of Cpl1 fusion variants
# Assay type: cell-based
# Settings: with EDTA 0.5 mM; 10^6 cells/ml; 30 minutes at RT
row,Molecule,"Average log reduction, Streptococcus"
1,"Cpl1: endolysin Cpl-1 (protein, Streptococcus pneumoniae Phage Cpl-1) MVKKNDLFVDVSSHNGYDITGILEQMGTTNTIIKISESTTYLNPCLSAQVEQSNPIGFYHFARFGGDVAEAEREAQFFLDNVPMQVKYLVLDYEDDPSGDAQANTNACLRFMQMIADAGYKPIYYSYKPFTHDNVDYQQILAQFPNSLWIAGYGLNDGTANFEYFPSMDGIRWWQYSSNPFDKNIVLLDDEEDDKPKTAGTWKQDSKGWWFRRNNGSFPYNKWEKIGGVWYYFDSKGYCLTSEWLKDNEKWYYLKDNGAMATGWVLVGSEWYYMDDSGAMVTGWVKYKNNWYYMTNERGNMVSNEFIKSGKGWYFMNTNGELADNPSFTKEPDGLITVA",+ (+: 1 log)
2,"Cpl1-Indolicidin: Cpl1 fusion variant with one peptide stretch, Indolicidin (protein) MVKKNDLFVDVSSHNGYDITGILEQMGTTNTIIKISESTTYLNPCLSAQVEQSNPIGFYHFARFGGDVAEAEREAQFFLDNVPMQVKYLVLDYEDDPSGDAQANTNACLRFMQMIADAGYKPIYYSYKPFTHDNVDYQQILAQFPNSLWIAGYGLNDGTANFEYFPSMDGIRWWQYSSNPFDKNIVLLDDEEDDKPKTAGTWKQDSKGWWFRRNNGSFPYNKWEKIGGVWYYFDSKGYCLTSEWLKDNEKWYYLKDNGAMATGWVLVGSEWYYMDDSGAMVTGWVKYKNNWYYMTNERGNMVSNEFIKSGKGWYFMNTNGELADNPSFTKEPDGLITVAILPWKWPWWPWRR",++ (++: 2-3 log)
3,"Cpl1-Pseudin1-Indolicidin: Cpl1 with Pseudin1 C-terminal of the enzyme, followed by Indolicidin (protein) MVKKNDLFVDVSSHNGYDITGILEQMGTTNTIIKISESTTYLNPCLSAQVEQSNPIGFYHFARFGGDVAEAEREAQFFLDNVPMQVKYLVLDYEDDPSGDAQANTNACLRFMQMIADAGYKPIYYSYKPFTHDNVDYQQILAQFPNSLWIAGYGLNDGTANFEYFPSMDGIRWWQYSSNPFDKNIVLLDDEEDDKPKTAGTWKQDSKGWWFRRNNGSFPYNKWEKIGGVWYYFDSKGYCLTSEWLKDNEKWYYLKDNGAMATGWVLVGSEWYYMDDSGAMVTGWVKYKNNWYYMTNERGNMVSNEFIKSGKGWYFMNTNGELADNPSFTKEPDGLITVAGLNTLKKVFQGLHEAIKLINNHVQILPWKWPWWPWRR",+++ (+++: 4 or more logs)
4,"Cpl1-Pseudin1: Cpl1 fusion variant with one peptide stretch, Pseudin1 (protein) MVKKNDLFVDVSSHNGYDITGILEQMGTTNTIIKISESTTYLNPCLSAQVEQSNPIGFYHFARFGGDVAEAEREAQFFLDNVPMQVKYLVLDYEDDPSGDAQANTNACLRFMQMIADAGYKPIYYSYKPFTHDNVDYQQILAQFPNSLWIAGYGLNDGTANFEYFPSMDGIRWWQYSSNPFDKNIVLLDDEEDDKPKTAGTWKQDSKGWWFRRNNGSFPYNKWEKIGGVWYYFDSKGYCLTSEWLKDNEKWYYLKDNGAMATGWVLVGSEWYYMDDSGAMVTGWVKYKNNWYYMTNERGNMVSNEFIKSGKGWYFMNTNGELADNPSFTKEPDGLITVAGLNTLKKVFQGLHEAIKLINNHVQ",++ (++: 2-3 log)

# Tested on: Staphylococcus bacteria
# Experiment: In vitro antibacterial activity of Lysostaphin and LysK fusion variants
# Assay type: cell-based
# Settings: LysK variants; with EDTA 0.5 mM; 10^6 cells/ml; 30 minutes at RT
row,Molecule,"Average log reduction, Staphylococcus"
1,"Cecropin A (A. aegyptii)-LysK: LysK fusion variant with one peptide stretch, Cecropin A (A. aegyptii) (protein) MGGLKKLGKKLEGAGKRVFNAAEKALPVVAGAKALRKAKTQAEINKRLDAYAKGTVDSPYRVKKATSYDPSFGVMEAGAIDADGYYHAQCQDLITDYVLWLTDNKVRTWGNAKDQIKQSYGTGFKIHENKPSTVPKKGWIAVFTSGSYEQWGHIGIVYDGGNTSTFTILEQNWNGYANKKPTKRVDNYYGLTHFIEIPVKAGTTVKKETAKKSASKTPAPKKKATLKVSKNHINYTMDKRGKKPEGMVIHNDAGRSSGQQYENSLANAGYARYANGIAHYYGSEGYVWEAIDAKNQIAWHTGDGTGANSGNFRFAGIEVCQSMSASDAQFLKNEQAVFQFTAEKFKEWGLTPNRKTVRLHMEFVPTACPHRSMVLHTGFNPVTQGRPSQAIMNKLKDYFIKQIKNYMDKGTSSSTVVKDGKTSSASTPATRPVTGSWKKNQYGTWYKPENATFVNGNQPIVTRIGSPFLNAPVGGNLPAGATIVYDEVCIQAGHIWIGYNAYNGNRVYCPVRTCQGVPPNQIPGVAWGVFK",++ (++: 2-3 log)
2,"PK2-LysK: LysK fusion variant with one peptide stretch, PK2 (protein) MKRKKRKKRKKRKKRKKRKAKTQAEINKRLDAYAKGTVDSPYRVKKATSYDPSFGVMEAGAIDADGYYHAQCQDLITDYVLWLTDNKVRTWGNAKDQIKQSYGTGFKIHENKPSTVPKKGWIAVFTSGSYEQWGHIGIVYDGGNTSTFTILEQNWNGYANKKPTKRVDNYYGLTHFIEIPVKAGTTVKKETAKKSASKTPAPKKKATLKVSKNHINYTMDKRGKKPEGMVIHNDAGRSSGQQYENSLANAGYARYANGIAHYYGSEGYVWEAIDAKNQIAWHTGDGTGANSGNFRFAGIEVCQSMSASDAQFLKNEQAVFQFTAEKFKEWGLTPNRKTVRLHMEFVPTACPHRSMVLHTGFNPVTQGRPSQAIMNKLKDYFIKQIKNYMDKGTSSSTVVKDGKTSSASTPATRPVTGSWKKNQYGTWYKPENATFVNGNQPIVTRIGSPFLNAPVGGNLPAGATIVYDEVCIQAGHIWIGYNAYNGNRVYCPVRTCQGVPPNQIPGVAWGVFK",++ (++: 2-3 log)
3,"PK2-Cecropin A (A. aegyptii)-LysK: PK2, then Cecropin A (A. aegyptii), N-terminally fused to LysK (protein) MKRKKRKKRKKRKKRKKRKGGLKKLGKKLEGAGKRVFNAAEKALPVVAGAKALRKAKTQAEINKRLDAYAKGTVDSPYRVKKATSYDPSFGVMEAGAIDADGYYHAQCQDLITDYVLWLTDNKVRTWGNAKDQIKQSYGTGFKIHENKPSTVPKKGWIAVFTSGSYEQWGHIGIVYDGGNTSTFTILEQNWNGYANKKPTKRVDNYYGLTHFIEIPVKAGTTVKKETAKKSASKTPAPKKKATLKVSKNHINYTMDKRGKKPEGMVIHNDAGRSSGQQYENSLANAGYARYANGIAHYYGSEGYVWEAIDAKNQIAWHTGDGTGANSGNFRFAGIEVCQSMSASDAQFLKNEQAVFQFTAEKFKEWGLTPNRKTVRLHMEFVPTACPHRSMVLHTGFNPVTQGRPSQAIMNKLKDYFIKQIKNYMDKGTSSSTVVKDGKTSSASTPATRPVTGSWKKNQYGTWYKPENATFVNGNQPIVTRIGSPFLNAPVGGNLPAGATIVYDEVCIQAGHIWIGYNAYNGNRVYCPVRTCQGVPPNQIPGVAWGVFK",+++ (+++: 4 or more logs)

# Tested on: Pseudomonas bacteria
# Experiment: In vitro antibacterial activity of KZ144 and EL188 fusion variants
# Assay type: cell-based
# Settings: with EDTA 0.5 mM; 10^6 cells/ml; 30 minutes at RT
# Method: Exponential growing Gram-negative bacterial cells (OD600 nm=0.6) were 100-fold diluted to a final density of about 10^6 cells/ml in 5 mM HEPES pH 7.4 and incubated for 30 minutes at room temperature without shaking with the different modified OBPgpLYS variants (in Elution Buffer in an end concentration of 1500 nM). After incubation cell suspensions and as a control untreated bacterial cells without any added modified OBPgpLYS variant were diluted three times (respectively 10^5-10^4-10^3 cells/ml) in 1× concentrated PBS buffer and 100 μl of each dilution was plated out on LB-medium. […] All samples were replicated in threefold. Averages +/− standard deviations are represented.
# The purification of the fusion proteins and the antimicrobial activity assay was performed as described in Example 1.
row,Molecule,"Average log reduction, Pseudomonas"
1,"KZ144-PK: KZ144 fusion variant with one peptide stretch, PK (protein) MKVLRKGDRGDEVCQLQTLLNLCGYDVGKPDGIFGNNTFNQVVKFQKDNCLDSDGIVGKNTWAELFSKYSPPIPYKTIPMPTANKSRAAATPVMNAVENATGVRSQLLLTFASIESAFDYEIKAKTSSATGWFQFLTGTWKTMIENYGMKYGVLTDPTGALRKDPRISALMGAELIKENMNILRPVLKREPTDTDLYLAHFFGPGAARRFLTTGQNELAATHFPKEAQANPSIFYNKDGSPKTIQEVYNLMDGKVAAHRKKRKKRKKRK",+ (+: 1 log)
2,"KZ144: Pseudomonas aeruginosa bacteriophage endolysin KZ144 (phage phiKZ) (protein, Pseudomonas aeruginosa phage KZ) KVLRKGDRGDEVCQLQTLLNLCGYDVGKPDGIFGNNTFNQVVKFQKDNCLDSDGIVGKNTWAELFSKYSPPIPYKTIPMPTANKSRAAATPVMNAVENATGVRSQLLLTFASIESAFDYEIKAKTSSATGWFQFLTGTWKTMIENYGMKYGVLTDPTGALRKDPRISALMGAELIKENMNILRPVLKREPTDTDLYLAHFFGPGAARRFLTTGQNELAATHFPKEAQANPSIFYNKDGSPKTIQEVYNLMDGKVAAHRK",+/− (+/−: <1 log)
3,"EL188: Pseudomonas aeruginosa bacteriophage endolysin EL188 (phage EL) (protein, Pseudomonas aeruginosa phage EL) MNFRTKNGYRDLQALVKELGLYTGQIDGVWGKGTSSSTETLLRGYAEVVGKNTGGIGLPTTSDASGYNVITALQRNLAFLGLYSLTVDGIWGNGTLSGLDKAFEVYKERYRTPTYDIAWSGKVSPAFTAKVKDWCGVHVPNHRAPHWLMACMAFETGQTFSPSIKNAAGSEAYGLIQFMSPAANDLNVPLSVIRSMDQLTQLDLVFKYFEMWMKRGKRYTQLEDFYLTIFHPASVGKKADEVLFLQGSKAYLQNKGFDVDKDGKITLGEISSTLYTTYYKGLLPENRHVISY",+/− (+/−: <1 log)
4,"EL188-PK: EL188 fusion variant with one peptide stretch, PK (protein) MNFRTKNGYRDLQALVKELGLYTGQIDGVWGKGTSSSTETLLRGYAEVVGKNTGGIGLPTTSDASGYNVITALQRNLAFLGLYSLTVDGIWGNGTLSGDKAFEVYKERYRTPTYDIAWSGKVSPAFTAKVKDWCGVHVPNHRAPHWLMACMAFETGQTFSPSIKNAAGSEAYGLIQFMSPAANDLNVPLSVIRSMDQLTQLDLVFKYFEMWMKRGKRYTQLEDFYLTIFHPASVGKKADEVLFLQGSKAYLQNKGFDVDKDGKITLGEISSTLYTTYYKGLLPENRHVISYKRKKRKKRK",+ (+: 1 log)
